Experimental findings from patent US20180194839A1 (Novartis, published 2018) are described below.

Assay [1] has as its target T1, recombinant mouse IL-17F (SEQ ID NO: 84) (mouse, UniProt Q7TNI7 29-161).
T1 construct: also called mIL-17F; rmIL-17F
T1 sequence: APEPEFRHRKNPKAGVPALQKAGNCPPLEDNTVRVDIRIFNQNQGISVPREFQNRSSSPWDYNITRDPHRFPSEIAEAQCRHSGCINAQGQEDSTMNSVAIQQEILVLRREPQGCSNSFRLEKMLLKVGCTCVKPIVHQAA
Briefly: ELISA, coated antigen. (In an ELISA, binding on a coated surface is turned into a signal by an enzyme label.)

For assay [2], the target named is T2, recombinant human IL-17B (R&D Systems) (human, UniProt Q9UHF5 21-180).
T2 construct: also called huIL-17B; hu IL-17B
T2 sequence (looked up): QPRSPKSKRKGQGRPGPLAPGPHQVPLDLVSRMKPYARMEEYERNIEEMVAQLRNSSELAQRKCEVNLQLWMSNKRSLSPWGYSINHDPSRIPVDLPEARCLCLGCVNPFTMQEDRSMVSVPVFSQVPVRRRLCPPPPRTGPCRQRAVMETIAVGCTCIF
Description: ELISA, coated antigen.

The target in assay [3] is T3, recombinant human IL-17C (R&D Systems Cat#1234IL/CF) (human, UniProt Q9P0M4 19-197).
T3 construct: also called huIL-17C; hu IL-17C
T3 sequence (looked up): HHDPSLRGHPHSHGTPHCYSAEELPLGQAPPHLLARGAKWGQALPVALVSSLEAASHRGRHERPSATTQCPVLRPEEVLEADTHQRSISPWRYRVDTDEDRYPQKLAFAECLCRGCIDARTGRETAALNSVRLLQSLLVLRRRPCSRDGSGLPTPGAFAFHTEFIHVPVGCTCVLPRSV
Description: ELISA, coated antigen.

The target of assay [4] is T4, recombinant human IL-17D (R&D Systems Cat#1504IL/CF) (human, UniProt Q8TAD2 18-202, limits assumed).
T4 construct: also called huIL-17D; hu IL-17D
T4 sequence (looked up): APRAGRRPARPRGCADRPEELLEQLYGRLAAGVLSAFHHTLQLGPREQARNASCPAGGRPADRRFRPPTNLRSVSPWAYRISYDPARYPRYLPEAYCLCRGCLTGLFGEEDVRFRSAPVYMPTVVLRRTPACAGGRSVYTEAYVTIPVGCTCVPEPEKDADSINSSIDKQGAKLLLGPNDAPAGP
Description: ELISA, coated antigen.

In assay [5] the target is T5, recombinant human IL-17E (R&D Systems Cat#1258-IL/CF) (human, UniProt Q9H293 33-177).
T5 construct: also called huIL-17E; hu IL-17E
T5 sequence (looked up): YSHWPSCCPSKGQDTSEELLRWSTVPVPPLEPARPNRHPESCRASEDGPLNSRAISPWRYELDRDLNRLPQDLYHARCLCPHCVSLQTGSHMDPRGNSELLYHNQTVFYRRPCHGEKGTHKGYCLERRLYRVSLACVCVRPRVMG
Description: ELISA, coated antigen.

Assay [6] has as its target T6, recombinant human IL-17A (SEQ ID NO: 76) (human, UniProt Q16552 24-155, limits assumed).
T6 sequence: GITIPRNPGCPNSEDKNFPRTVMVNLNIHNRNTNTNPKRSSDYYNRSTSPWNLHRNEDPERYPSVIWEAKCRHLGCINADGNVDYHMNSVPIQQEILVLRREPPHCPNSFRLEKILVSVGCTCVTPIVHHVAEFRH
Description: cell-based or functional assay.

The target of assay [7] is T7, recombinant human IL-17A/F heterodimer (human, UniProt Q16552 24-155; Q96PD4 31-163, limits assumed).
T7 sequence (looked up) 1: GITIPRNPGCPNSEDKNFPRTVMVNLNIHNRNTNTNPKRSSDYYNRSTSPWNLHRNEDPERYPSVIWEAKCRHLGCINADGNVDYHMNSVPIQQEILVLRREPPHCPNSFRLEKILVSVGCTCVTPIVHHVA
T7 sequence (looked up) 2: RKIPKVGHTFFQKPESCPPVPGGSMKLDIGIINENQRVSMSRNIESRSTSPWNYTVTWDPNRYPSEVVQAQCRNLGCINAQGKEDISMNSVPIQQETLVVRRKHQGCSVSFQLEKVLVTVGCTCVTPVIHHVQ
Briefly: cell-based or functional assay.

Assay [8] deals with T8, recombinant human IL-17F (SEQ ID NO: 77) (human, UniProt Q96PD4 31-163).
T8 sequence: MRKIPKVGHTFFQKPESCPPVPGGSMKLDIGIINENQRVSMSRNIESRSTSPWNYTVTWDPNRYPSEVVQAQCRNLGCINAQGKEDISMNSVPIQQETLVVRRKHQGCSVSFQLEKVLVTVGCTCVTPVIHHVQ
Briefly: cell-based or functional assay.

The target of assay [9] is T6, recombinant human IL-17A (SEQ ID NO: 76). Description: cell-based or functional assay. The source holds these as a separate data set.
For assay [10], the target named is T7, recombinant human IL-17A/F heterodimer. Description: cell-based or functional assay. The source holds these as a separate data set.
In assay [11] the target is T8, recombinant human IL-17F (SEQ ID NO: 77). Description: cell-based or functional assay. This is another data set of the same source.
The target in assay [12] is T6, recombinant human IL-17A (SEQ ID NO: 76). Briefly: cell-based or functional assay. The source holds these as a separate data set.
In assay [13] the target is T9, recombinant mouse IL-2 (R&D Systems 402-ML-020/CF) (mouse, UniProt P04351 21-169).
T9 construct: also called mIL-2
T9 sequence (looked up): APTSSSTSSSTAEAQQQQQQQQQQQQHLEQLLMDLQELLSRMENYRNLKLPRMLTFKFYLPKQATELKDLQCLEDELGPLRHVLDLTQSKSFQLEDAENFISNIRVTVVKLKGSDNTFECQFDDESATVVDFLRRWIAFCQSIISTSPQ
Briefly: ELISA, coated cytokine, Ab 10 µg/ml.

In assay [14] the target is T10, recombinant mouse IL-18 (MBL Cat#B004-5) (mouse, UniProt P70380 36-192).
T10 construct: also called mIL-18
T10 sequence (looked up): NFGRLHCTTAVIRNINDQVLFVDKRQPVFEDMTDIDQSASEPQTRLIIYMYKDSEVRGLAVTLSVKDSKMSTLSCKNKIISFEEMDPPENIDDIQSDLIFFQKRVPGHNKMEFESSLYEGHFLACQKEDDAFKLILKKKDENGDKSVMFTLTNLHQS
Description: ELISA, coated cytokine, Ab 10 µg/ml.

Numbering of substitutions follows the chain as printed. Names may count otherwise. A value given as a limit tells only on which side of the number the result lay.

B1: XAB4 (antibody, human IgG1, kappa, V domains shown)
VH: EVQLVESGGDLVQPGGSLRLSCAASGFTFSSYWMSWVRQAPGKGLEWVANIKQDGSEKYYVDSVKGRFTISRDNAKNSLYLQMNSLRAEDTAVYYCARDRGSLYYWGQGTLVTVSS
VL: AIQLTQSPSSLSASVGDRVTITCRPSQGINWELAWYQQKPGKAPKLLIYDASSLEQGVPSRFSGSGSGTDFTLTISSLQPEDFATYYCQQFNSYPLTFGGGTKVEIKR
notes: also called MB435 N56Q
On to B1, for which, in assay [1], the binding result was “no binding (tested: 1 µg/ml)”. In addition, the binding result in [2] is listed as “no binding (tested: 1 µg/ml)”. Further, the binding result in assay [3] was “no binding (tested: 1 µg/ml)”. The binding result in assay [4] is given as “no binding (tested: 1 µg/ml)”. For the same molecule, the binding result in assay [5] is listed as “no binding (tested: 1 µg/ml)”. Moreover, the “IC50, huIL-6 secretion by BJ cells; stimulus rhuIL-17A (1 nM)” value in assay [6] is 0.63 nM. In [7], the “IC50, huIL-6 secretion by BJ cells; stimulus rhuIL-17A/F (300 pM) + rhuTNF-α (6 pM)” value is 0.17 nM and the “IC50, huIL-6 secretion by BJ cells; stimulus rhuIL-17A/F (3 nM)” value was found to be 1.68 nM. Further, in assay [8], the “IC50, huIL-6 secretion by BJ cells; stimulus rhuIL-17F (10 nM) + rhuTNF-α (6 pM)” value is more than 3 µM and the “IC50, huIL-6 secretion by BJ cells; stimulus rhuIL-17F (30 nM)” value is more than 3000 nM. For the same molecule, in assay [9], the “IC50, hu-GRO-alpha secretion by BJ cells; stimulus IL-17A (30 pM) + TNF-α (6 pM)” value stood at 7 pM and the “IC50, hu-GRO-alpha secretion by BJ cells; stimulus IL-17A (1 nM)” value came out at 0.35 nM. In assay [10], the “IC50, hu-GRO-alpha secretion by BJ cells; stimulus IL-17A/F (300 pM) + TNF-α (6 pM)” value came out at 0.1 nM and the “IC50, hu-GRO-alpha secretion by BJ cells; stimulus IL-17A/F (3 nM)” value worked out at 1.11 nM. In assay [11], the “IC50, hu-GRO-alpha secretion by BJ cells; stimulus IL-17F (10 nM) + TNF-α (6 pM)” value was more than 3 µM and the “IC50, hu-GRO-alpha secretion by BJ cells; stimulus IL-17F (30 nM)” value was more than 3000 nM. Also, in assay [12], the “IC50, huGROα secretion by BJ cells; stimulus rhuIL-17A (0.5 nM)” value stood at 0.44 nM. The O.D. in assay [13] worked out at 0.024 O.D. Further, in [14], the O.D. amounted to 0.054 O.D.

B2: XAB1 (antibody, human IgG1, kappa, V domains shown)
VH: B1 VH
VL: B1 VL with N30I, W31S, E32A, Q56N
notes: human IgG1/kappa monoclonal antibody; also called parental XAB1; XAB1 IgG
As for B2, the binding result in assay [1], in [2], in assay [3], in assay [4] and in [5] was “no binding (tested: 1 µg/ml)” throughout. In addition, the “IC50, huIL-6 secretion by BJ cells; stimulus rhuIL-17A (30 pM) + rhuTNF-α (6 pM)” value in assay [6] amounted to 0.47 nM. For the same molecule, in [7], the “IC50, huIL-6 secretion by BJ cells; stimulus rhuIL-17A/F (300 pM) + rhuTNF-α (6 pM)” value was found to be 3.83 nM. In addition, the “IC50, huIL-6 secretion by BJ cells; stimulus rhuIL-17F (10 nM) + rhuTNF-α (6 pM)” value in assay [8] was more than 3 µM. In addition, in assay [9], the “IC50, hu-GRO-alpha secretion by BJ cells; stimulus IL-17A (30 pM) + TNF-α (6 pM)” value was found to be 0.72 nM. In [10], the “IC50, hu-GRO-alpha secretion by BJ cells; stimulus IL-17A/F (300 pM) + TNF-α (6 pM)” value was determined as 6.22 nM. Further, the “IC50, hu-GRO-alpha secretion by BJ cells; stimulus IL-17F (10 nM) + TNF-α (6 pM)” value in assay [11] was more than 3 µM. In addition, in assay [12], the “IC50, huGROα secretion by BJ cells; stimulus rhuIL-17A (0.5 nM)” value came out at 1.39 nM. For the same molecule, the O.D. in assay [13] and in [14] was 0.022 O.D each time.
